From paper PMC9769108, “Tuning dynamic DNA- and peptide-driven self-assembly in DNA–peptide conjugates†” (Chemical Science, 2022) come the findings set out here.

Where no end group is shown, it is not given here.

The data set concerns the molecule itself. Kind of data set: dynamic light scattering + atomic force microscopy; TAMg buffer, room temperature, aged 0 to 28 days; total peptide 10 μM; CD alongside.

B1: ILVAGK, β-turn-forming hexapeptide (parent peptide) (peptide)
peptide: ILVAGK
modifications: not fully specified (N-terminus, C-terminus)
notes: The form used for conjugation is N3-ILVAGK-NH2; also called pure ILVAGK
Take B1: the binding result is reported as “binds”.
